The source of these data is ChEMBL document CHEMBL1132365, “A multisubstrate adduct inhibitor of AICAR transformylase” (J Med Chem, 1999).

Substrate in data set [1]: NC1=NC(=O)C2N=C(CN(C=O)c3ccc(C(=O)N[C@H](CCC(=O)O)C(=O)O)cc3)C=CC2N1
Description: (§1) Substrate specificity towards AICAR formyltransferase.

Substrate in data set [2]: NC1=NC(=O)C2N[C@@H](CN(C=O)c3ccc(C(=O)N[C@H](CCC(=O)O)C(=O)O)cc3)CNC2N1
Described as §1.

Usually Km stands for the substrate concentration at which the rate is half of its maximum.

B1: Bifunctional purine biosynthesis protein ATIC (Homo sapiens), P31939 (protein)
chain: MAPGQLALFSVSDKTGLVEFARNLTALGLNLVASGGTAKALRDAGLAVRDVSELTGFPEMLGGRVKTLHPAVHAGILARNIPEDNADMARLDFNLIRVVACNLYPFVKTVASPGVTVEEAVEQIDIGGVTLLRAAAKNHARVTVVCEPEDYVVVSTEMQSSESKDTSLETRRQLALKAFTHTAQYDEAISDYFRKQYSKGVSQMPLRYGMNPHQTPAQLYTLQPKLPITVLNGAPGFINLCDALNAWQLVKELKEALGIPAAASFKHVSPAGAAVGIPLSEDEAKVCMVYDLYKTLTPISAAYARARGADRMSSFGDFVALSDVCDVPTAKIISREVSDGIIAPGYEEEALTILSKKKNGNYCVLQMDQSYKPDENEVRTLFGLHLSQKRNNGVVDKSLFSNVVTKNKDLPESALRDLIVATIAVKYTQSNSVCYAKNGQVIGIGAGQQSRIHCTRLAGDKANYWWLRHHPQVLSMKFKTGVKRAEISNAIDQYVTGTIGEDEDLIKWKALFEEVPELLTEAEKKEWVEKLTEVSISSDAFFPFRDNVDRAKRSGVAYIAAPSGSAADKVVIEACDELGIILAHTNLRLFHH
On to B1, for which the Michaelis constant (Km) in data set [1] was 102 µM; in data set [2] it was 68 µM.
